Laboratory results reported in publication PMC5457915, “Real-time analysis of the binding of fluorescent VEGF165a to VEGFR2 in living cells: Effect of receptor tyrosine kinase inhibitors and fate of internalized agonist-receptor complexes” (Biochemical Pharmacology, 2017).
Where “and” joins values, the source holds several entries; their conditions need not be identical. Identical values can stand only once. Entries after “also recorded” stand apart in the source; their conditions may differ.

Legend:
VEGFR2 = VEGFR2 (Homo sapiens, UniProt P35968); test: Confocal / structured illumination microscopy of VEGF165a-TMR and VEGFR2 location after RTKI pre-treatment; type: cell-based; parameters: full length VEGFR2, tagged with the bioluminescent protein NanoLuc; IL-6 signal peptide (N); expressed in transfected cells; conditions: RTKI 30 min pre-incubation, then 10 nM VEGF165a-TMR 30 min
VEGFR2, sequence (P35968 20-1356): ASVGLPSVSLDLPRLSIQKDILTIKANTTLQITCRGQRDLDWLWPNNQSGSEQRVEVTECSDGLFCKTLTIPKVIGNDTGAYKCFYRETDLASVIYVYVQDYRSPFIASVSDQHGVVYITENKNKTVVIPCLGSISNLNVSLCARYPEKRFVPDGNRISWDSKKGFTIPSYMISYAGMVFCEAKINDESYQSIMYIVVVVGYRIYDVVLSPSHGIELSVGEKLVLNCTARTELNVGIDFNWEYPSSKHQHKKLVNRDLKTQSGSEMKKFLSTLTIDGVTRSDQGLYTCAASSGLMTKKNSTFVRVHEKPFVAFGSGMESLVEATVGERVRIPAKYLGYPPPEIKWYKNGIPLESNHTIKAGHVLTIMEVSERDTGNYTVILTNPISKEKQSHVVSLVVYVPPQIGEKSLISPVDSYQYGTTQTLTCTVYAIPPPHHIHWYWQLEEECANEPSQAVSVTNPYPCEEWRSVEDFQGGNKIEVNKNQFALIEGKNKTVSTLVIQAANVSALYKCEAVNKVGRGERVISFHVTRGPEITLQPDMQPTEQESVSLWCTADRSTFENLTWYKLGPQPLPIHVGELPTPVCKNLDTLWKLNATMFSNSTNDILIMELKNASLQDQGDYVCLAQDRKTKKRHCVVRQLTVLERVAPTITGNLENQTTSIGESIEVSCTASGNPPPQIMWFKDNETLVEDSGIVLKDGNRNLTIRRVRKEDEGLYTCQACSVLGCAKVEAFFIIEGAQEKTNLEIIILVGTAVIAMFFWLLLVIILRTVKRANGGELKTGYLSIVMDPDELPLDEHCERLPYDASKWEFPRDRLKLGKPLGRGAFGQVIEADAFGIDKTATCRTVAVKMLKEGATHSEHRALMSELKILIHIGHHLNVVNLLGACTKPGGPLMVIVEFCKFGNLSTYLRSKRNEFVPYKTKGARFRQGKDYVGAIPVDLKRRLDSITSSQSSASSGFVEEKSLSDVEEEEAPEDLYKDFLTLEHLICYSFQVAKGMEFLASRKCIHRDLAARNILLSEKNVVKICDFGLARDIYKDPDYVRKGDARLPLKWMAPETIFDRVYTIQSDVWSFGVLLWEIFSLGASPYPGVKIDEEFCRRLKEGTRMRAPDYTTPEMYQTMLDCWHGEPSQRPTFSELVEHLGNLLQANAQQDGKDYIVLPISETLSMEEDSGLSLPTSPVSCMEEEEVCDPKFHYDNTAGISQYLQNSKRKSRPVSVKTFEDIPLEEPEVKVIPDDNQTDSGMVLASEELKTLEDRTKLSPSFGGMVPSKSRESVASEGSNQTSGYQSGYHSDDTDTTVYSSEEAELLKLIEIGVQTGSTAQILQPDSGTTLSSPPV
Description: On the day of the assay, cells were washed three times with HBSS/0.1% protease free BSA (vehicle). Receptor tyrosine kinase inhibitors were added at this point as aliquots to the appropriate wells and cells incubated for 30 min at 37 °C. Cells were then stimulated with 10 nM VEGF165a-TMR for 30 min at 37 °C in the dark.
All cells were then fixed using 3% PFA/PBS (10 min at room temperature), washed with PBS and mounted onto slides using Prolong Gold antifade reagent (P10144; Thermo Fisher Scientific, USA). TetraSpeck™ microspheres (0.1 μm; T7279, Thermo Fisher Scientific, USA) were included in each experiment to allow X/Y/Z channel alignment correction in image processing. […] Images were manually processed with consistent raw scaling between and within experiments.

NLuc-VEGFR2 = molecular target: T1, NLuc-VEGFR2 (Homo sapiens, UniProt P35968); test: NanoBRET ligand binding (saturation/competition) in living HEK293T NLuc-VEGFR2 cells; conditions: maximal response relative to binding of VEGF165a-TMR alone; RTKI 30 min pre-treatment, 60 min ligand
T1 construct: full length VEGFR2, tagged with the bioluminescent protein NanoLuc; IL-6 signal peptide (N); expressed in transfected cells
T1 sequence (P35968 20-1356): as above
Description: On the day of the assay, medium was replaced with 50 μl per well HBSS/0.1% protease free BSA. Where appropriate, RTKIs were added 30 min prior to agonist. For competition experiments, a fixed concentration of fluorescent VEGF165a-TMR was added simultaneously with competing unlabeled VEGF isoforms to triplicate wells for the time specified (10, 30 or 60 min) and plates co-incubated at 37 °C in the dark. For saturation experiments a range of concentrations of VEGF165a-TMR were added in the presence or absence of a competing concentration (30 nM) of unlabeled VEGF165a and incubated for 60 min at 37 °C in the dark. The NanoLuc substrate furimazine (N1130; Promega Corporation, USA) was then added at a final concentration of 10 μM. […] For all experiments, sequential recordings were performed at room temperature using a PHERAstar FS plate reader (BMG Labtech, Germany) using 460 nm (80 nm bandpass; donor NanoLuc emission) and >610 nm longpass filters (acceptor emission). Raw BRET ratios were calculated from the ratio of acceptor to donor emission values. For real-time ligand association kinetics experiments, cells were incubated with vehicle for 30 min at 37 °C. Furimazine (10 μM) was then added and plates equilibrated at 37 °C in the PHERAstar FS plate reader for 5 min.
Equilibrium binding: All data were analysed using Prism 6 (GraphPad; San Diego, CA, USA). NanoBRET competition experiments were fitted as raw BRET ratios using non-linear least squares regression (variable slope) with no constraints used. Saturation curves were fitted simultaneously for total (VEGF165a-TMR alone) and non-specific binding (top concentration of competing VEGF165a alone) using both one and two site fits. Background and non-specific binding parameters were shared across all data sets.
Binding affinities (Ki) of the unlabeled ligands were calculated using the Cheng-Prusoff equation: Ki=IC50/1+[L]/KD where [L] is the concentration of fluorescent ligand used (nM). KD values (nM) were derived from saturation binding curves. […]

[1] = molecular target: NLuc-VEGFR2 (full length human VEGFR2 with NanoLuc on its N-terminus) (human) (UniProt P35968); test: FRET or BRET; NanoBRET competition on living HEK293T NLuc-VEGFR2 cells; fixed VEGF165a-TMR (0.1-3 nM) added simultaneously with increasing unlabeled VEGF isoform, 60 min at 37 °C, HBSS/0.1% BSA; IC50 (molar) converted to pKi by Cheng-Prusoff; also linear regression of IC50 against [VEGF165a-TMR]; apparent
NLuc-VEGFR2 (full length human VEGFR2 with NanoLuc on its N-terminus) (human), sequence (P35968 20-1356): as above

[2] = molecular target: NLuc-VEGFR2 (full length human VEGFR2 with NanoLuc on its N-terminus) (human) (UniProt P35968); test: FRET or BRET; NanoBRET competition on living HEK293T NLuc-VEGFR2 cells; vehicle 30 min at 37 °C, then VEGF165a-TMR (0.5-3 nM) with unlabeled VEGF165a for 30 min at 37 °C
[3] = molecular target: NLuc-VEGFR2 (full length human VEGFR2 with NanoLuc on its N-terminus) (human) (UniProt P35968); test: FRET or BRET; NanoBRET competition on living HEK293T NLuc-VEGFR2 cells; vehicle 30 min at 37 °C, then VEGF165a-TMR (0.5-3 nM) with unlabeled VEGF165a for 60 min at 37 °C
[4] = molecular target: NLuc-VEGFR2 (full length human VEGFR2 with NanoLuc on its N-terminus) (human) (UniProt P35968); test: FRET or BRET; NanoBRET competition on living HEK293T NLuc-VEGFR2 cells; 1 μM cediranib 30 min at 37 °C, then VEGF165a-TMR (0.5-3 nM) with unlabeled VEGF165a for 60 min at 37 °C
[5] = molecular target: NLuc-VEGFR2 (full length human VEGFR2 with NanoLuc on its N-terminus) (human) (UniProt P35968); test: FRET or BRET; NanoBRET competition on living HEK293T NLuc-VEGFR2 cells; 1 μM cediranib 30 min at 37 °C, then VEGF165a-TMR (0.5-3 nM) with unlabeled VEGF165a for 10 min at 37 °C
[6] = molecular target: NLuc-VEGFR2 (full length human VEGFR2 with NanoLuc on its N-terminus) (human) (UniProt P35968); test: FRET or BRET; NanoBRET competition on living HEK293T NLuc-VEGFR2 cells; 1 μM cediranib 30 min at 37 °C, then VEGF165a-TMR (0.5-3 nM) with unlabeled VEGF165a for 30 min at 37 °C
[7] = molecular target: NLuc-VEGFR2 (full length human VEGFR2 with NanoLuc on its N-terminus) (human) (UniProt P35968); test: FRET or BRET; NanoBRET competition on living HEK293T NLuc-VEGFR2 cells; vehicle 30 min at 37 °C, then VEGF165a-TMR (0.5-3 nM) with unlabeled VEGF165a for 10 min at 37 °C
[8] = molecular target: VEGF165a-TMR (fluorescent VEGF165a labeled with 6-TMR-PEG-CBT on a single N-terminal cysteine of each protomer) (human); test: fluorescence correlation spectroscopy; solution FCS of VEGF165a-TMR (0.25-10 nM) in HBSS with 0.1% protease-free BSA; also without BSA and with 10 mM DTT (30 min at 37 °C); number of fluorescent particles against the concentration calculated for a dimer
[9] = molecular target: VEGF165a-TMR (fluorescent VEGF165a labeled with 6-TMR-PEG-CBT on a single N-terminal cysteine of each protomer) (human); test: SDS-PAGE with and without DTT, fluorescence scan; purified VEGF165a-TMR in the presence or absence of 100 mM DTT, scanned on a Typhoon 9400 (Ex 532 nm, Em 580 nm)
[10] = molecular target: NLuc-VEGFR2 (full length human VEGFR2 with NanoLuc on its N-terminus) (human) (UniProt P35968); test: FRET or BRET; NanoBRET saturation on living HEK293T NLuc-VEGFR2 cells, 30 min pre-incubation with 1 μM cediranib (Fig. 6b)
[11] = molecular target: NLuc-VEGFR2 (full length human VEGFR2 with NanoLuc on its N-terminus) (human) (UniProt P35968); test: FRET or BRET; NanoBRET saturation on living HEK293T NLuc-VEGFR2 cells; VEGF165a-TMR 0.1-3 nM with or without 30 nM unlabeled VEGF165a (non-specific binding), 60 min at 37 °C, HBSS/0.1% BSA; one site fit; apparent
[12] = molecular target: NLuc-VEGFR2 (full length human VEGFR2 with NanoLuc on its N-terminus) (human) (UniProt P35968); test: FRET or BRET; NanoBRET saturation on living HEK293T NLuc-VEGFR2 cells, without cediranib (Fig. 6b)
[13] = molecular target: NLuc-VEGFR2 (full length human VEGFR2 with NanoLuc on its N-terminus) (human) (UniProt P35968); test: FRET or BRET; NanoBRET real-time association kinetics on living HEK293T NLuc-VEGFR2 cells; VEGF165a-TMR 1-20 nM, read every 30 s for 16 min at 37 °C; kobs against concentration, linear only at the three lowest concentrations
[14] = molecular target: T2, NLuc-VEGFR2 (full length human VEGFR2 with NanoLuc on its N-terminus) (human, UniProt P35968-1 20-1356); test: FRET or BRET; NanoBRET competition on living HEK293T NLuc-VEGFR2 cells; fixed VEGF165a-TMR (0.1-3 nM) added simultaneously with increasing unlabeled VEGF isoform, 60 min at 37 °C, HBSS/0.1% BSA; IC50 (molar) converted to pKi by Cheng-Prusoff; also linear regression of IC50 against [VEGF165a-TMR]; apparent; conditions: one partner purified
T2 construct: VEGFR2, human, subcloned from an Origene plasmid (NM_002253); called full length VEGFR2; Open reading frame: IL-6 signal peptide, NanoLuc, Gly-Ser-Ser-Gly(AIA) linker, VEGFR2 (vector pF-sNnK CMV/neo); also called NanoLuc VEGFR2; NanoLuc-tagged VEGFR2; not shown: NanoLuc, N-terminal, kept
T2 sequence (P35968 20-1356): as above

COc1cc2c(Oc3ccc4[nH]c(C)cc4c3F)ncnc2cc1OCCCN1CCCC1 [Cediranib]
effect on VEGFR2 internalization by VEGF165a-TMR / cellular location of VEGF165a-TMR (VEGFR2): prevented; also recorded: largely localised to the cell membrane
NanoBRET % Increase in binding of 10 nM VEGF165a-TMR (NLuc-VEGFR2): 139.0 ± 4.4% and 139.0 ± 2.0 (4) %

Cc1ccc(Nc2nccc(N(C)c3ccc4c(C)n(C)nc4c3)n2)cc1S(N)(=O)=O [Pazopanib]
effect on VEGFR2 internalization by VEGF165a-TMR / cellular location of VEGF165a-TMR (VEGFR2): prevented
NanoBRET % Increase in binding of 10 nM VEGF165a-TMR (NLuc-VEGFR2): 144.8 ± 3.5 (4) %

COc1cc2c(Nc3ccc(Br)cc3F)ncnc2cc1OCC1CCN(C)CC1 [Vandetanib]
effect on VEGFR2 internalization by VEGF165a-TMR / cellular location of VEGF165a-TMR (VEGFR2): prevented
NanoBRET % Increase in binding of 10 nM VEGF165a-TMR (NLuc-VEGFR2): 152.8 ± 7.1 (4) %

VEGF165a (recombinant human, R&D Systems) (ligand)
Ki [1]: 0.22 nM
pKi [1]: 9.81
pKi [2]: 8.99
pKi [3]: 9.28
pKi [4]: 9.18
pKi [5]: 9.17
pKi [6]: 9.23
pKi [7]: 8.93

VEGF165a-TMR (fluorescent VEGF165a labeled with 6-TMR-PEG-CBT on a single N-terminal cysteine of each protomer) (ligand)
stoichiometry N [8]: 2
stoichiometry N [9]: 2
Kd [1]: 0.85 nM
Kd [10]: 1.18 nM
Kd [11]: 0.92 nM
Kd [12]: 1.14 nM
Kd [13]: 2.27 nM
koff [13]: 0.00183 s⁻¹
kon [13]: 797000 M⁻¹ s⁻¹

B1: VEGF165b (recombinant human, R&D Systems) (ligand)
chain: APMAEGGGQNHHEVVKFMDVYQRSYCHPIETLVDIFQEYPDEIEYIFKPSCVPLMRCGGCCNDEGLECVPTEESNITMQIMRIKPHQGQHIGEMSFLQHNKCECRPKKDRARQENPCGPCSERRKHLFVQDPQTCKCSCKNTDSRCKARQLELNERTCRSLTRKD
pKi [14]: 9.41

B2: VEGF189a (recombinant human, R&D Systems) (ligand)
chain: APMAEGGGQNHHEVVKFMDVYQRSYCHPIETLVDIFQEYPDEIEYIFKPSCVPLMRCGGCCNDEGLECVPTEESNITMQIMRIKPHQGQHIGEMSFLQHNKCECRPKKDRARQEKKSVRGKGKGQKRKRKKSRYKSWSVPCGPCSERRKHLFVQDPQTCKCSCKNTDSRCKARQLELNERTCRCDKPRR
pKi [14]: 8.99

B3: VEGF145a (recombinant human, R&D Systems) (ligand)
chain: APMAEGGGQNHHEVVKFMDVYQRSYCHPIETLVDIFQEYPDEIEYIFKPSCVPLMRCGGCCNDEGLECVPTEESNITMQIMRIKPHQGQHIGEMSFLQHNKCECRPKKDRARQEKKSVRGKGKGQKRKRKKSRYKSWSVCDKPRR
pKi [14]: 8.74

B4: VEGF121a (recombinant human, R&D Systems) (ligand)
chain: APMAEGGGQNHHEVVKFMDVYQRSYCHPIETLVDIFQEYPDEIEYIFKPSCVPLMRCGGCCNDEGLECVPTEESNITMQIMRIKPHQGQHIGEMSFLQHNKCECRPKKDRARQEKCDKPRR
pKi [14]: 9.47
